{"source": "paper doi:10.1101/2022.01.30.478305", "about": "(bioRxiv, 2022)", "binders": {"B1": {"name": "16L9 (antibody, V domains shown)", "VH": "EVQLVESGGGLIQPGGSLRLSCAASGFTVSSNYMSWVRQAPGKGLEWVSVIYSGGSTYYADSVKGRFTISRDNSENTLYLQMNSLRAEDTAVYYCARGEIQPYYYYGMDVWGQGTTVTVSS", "VL": "QSVLTQPPSASGSPGQSVTISCTGTSSDFGGYNSVSWYQQHPGKAPKLMIYEVSKRPSGVPDRFSGSKSGNTASLTVSGLQAEDEADYYCSSYAGSNNFDVFGTGTKVTVL"}}, "target": "SARS-CoV-2 RBD-his (SARS-CoV-2, UniProt P0DTC2)", "assay": "ELISA"}
{"binder": "B1", "values": [{"measurement": "binding result", "result": "binds"}]}
